Measurements reported in PMC3699834.

Substrate: N
Assay: cells, lysate or membranes
Conditions: NH4Cl; oocytes clamped at −120 mV; Michaelis–Menten fit

B1: AMT1;3 (Arabidopsis thaliana) (protein)
chain: MSGAITCSAADLATLLGPNATAAADYICGQLGTVNNKFTDAAFAIDNTYLLFSAYLVFAMQLGFAMLCAGSVRAKNTMNIMLTNVLDAAAGGLFYYLFGYAFAFGGSSEGFIGRHNFALRDFPTPTADYSFFLYQWAFAIAAAGITSGSIAERTQFVAYLIYSSFLTGFVYPVVSHWFWSPDGWASPFRSADDRLFSTGAIDFAGSGVVHMVGGIAGLWGALIEGPRRGRFEKGGRAIALRGHSASLVVLGTFLLWFGWYGFNPGSFTKILVPYNSGSNYGQWSGIGRTAVNTTLSGCTAALTTLFGKRLLSGHWNVTDVCNGLLGGFAAITAGCSVVEPWAAIVCGFMASVVLIGCNKLAELVQYDDPLEAAQLHGGCGAWGLIFVGLFAKEKYLNEVYGATPGRPYGLFMGGGGKLLGAQLVQILVIVGWVSATMGTLFFILKRLNLLRISEQHEMQGMDMTRHGGFAYIYHDNDDESHRVDPGSPFPRSATPPRV
B1 was tested, and the Km was 55 ± 15 µM.
